In patent US8802630B2, “Method of treating brain injury” (Buddhist Tzu Chi General Hospital, priority 2011, dated 2014):
Where no end group is shown, it is not given here.

Tests used:
[1] = system: collagenase-induced ICH rats; assay: modified Neurological Severity Score (mNSS), collagenase-induced ICH model; format: in vivo
Procedure: The ICH refers to hemorrhage in the striatum, a part of the brain. Male Sprague-Dawley rats (250-300 g) anesthetized with chloral hydrate (0.4 g kg^−1 i.p., Sigma-Aldrich, St. Louis, Mo., USA). The blood infusion model of ICH was induced by intrastriatal (0.0 mm posterior, 3.0 mm right, 5.0 mm ventral to bregma skull surface) infusion of autologous blood (100 μl within 1 minute) and stereotaxic administration of bacterial collagenase VII-S into the striatum (MacLellan et al. 2008; Rosenberg et al. 1990). Briefly, bacterial collagenase VII-S (0.23 U in 1.0 μl sterile saline, Sigma-Aldrich) was infused into the striatum over a period of 10 minutes. The needle was kept in place for another 10 minutes to prevent backflow. The craniotomies were sealed with bone wax. The rats were allowed to recover in separate cages at room temperature.
Rats were used in the assessment of the neurological abnormalities with a modified Neurological Severity Score (mNSS) method (Chen et al. 2001) by an investigator blinded to the experimental treatment scheme. The mNSS is a composite test of motor, sensory, and balance functions. The assessment was performed before and on 1, 3 and 7 days after the ICH. Neurological functions were graded on a scale of 0-18 (normal score, 0; maximal deficit score, 18).

[2] = system: collagenase-induced ICH rats; assay: Morphometric measurement of lesion volume / injured area; format: in vivo; conditions: for injured area: UCN 5 μg i.c.v.
Excerpt: […] The brains were cut coronally through the needle entry site (identifiable on the brain surface), and then serially sliced (2-mm thickness) anteriorly and posteriorly to the needle entry site. Digital photographs of the serial slices were taken and lesion volume was computed using image analyzer program (Image J, NIH). The total lesion volume (mm^3) was computed by summing the residual blood clot and damaged area in each section and multiplying by the distance between sections (Jung et al., 2004).

[3] = system: collagenase-induced ICH rats; assay: Assessment of blood-brain barrier disruption (Evans blue extravasation); format: in vivo
Procedure: Rats were randomly used in assessment of the vascular permeability of BBB with a modified Evans blue extravasation method (Esen et al., 2005). Briefly, 70 hours post-ICH, rats were anesthetized with chloral hydrate (0.4 g/kg) and infused, via the right femoral vein with 37° C. Evans blue dyes (2% in 0.9% normal saline, 4 ml/kg) over 5 minutes. Two hours later, the rats were perfused with 300 ml normal saline to wash out any remaining dye in the blood vessels and then brains were removed and sectioned into 2 mm thickness by a rodent brain matrix. Coronal brain sections were taken starting at +2 mm and ending at −4 mm from Bregma. BBB permeability was evaluated in the striatum, cortex and cerebellum. The cerebellum was used as an internal control. Each portion was weighed immediately and placed in 1 ml of 0.9% normal saline for homogenization of the sample. For protein precipitation, 1 ml of 60% trichloroacetic acid solution was added and vortexed for 2 minutes. The mixture was subsequently cooled for 30 minutes and centrifuged (1500 g at 4° C.) for another 30 minutes. The absorbance of Evans blue in the supernatant was then measured with a spectrophotometer (Molecular Devices OptiMax, USA) at 610 nm The dye concentration was expressed as μg/g of tissue weight and calculated from a standard curve obtained from known amounts of the dye.

[4] = system: microglial cells; assay: Immunohistochemistry of microglial activation (OX-42, ED-1); format: in vivo, rats; conditions: perihematomal region; L-UCN 2.5 μg/kg i.p.; day 3 post-ICH
Procedure: Rats were used in immunohistochemistry on day 3 post-ICH. Rats were anesthetized as described above and transcardially perfused with cold 0.1 M phosphate buffer saline followed by cold 4% paraformaldehyde in 0.1 M phosphate-buffered saline. Brains were removed and immersed in 4% paraformaldehyde for 24 hours and 30% sucrose for another 24 hours. Coronal brain sections (20 μm thickness) were cut and collected from 0.0 to −2.0 mm AP to bregma using a cryostat (Leica CM 1900). Three 20 μm coronal sections, representing the core of the hematoma, were taken starting at 0.0 mm from bregma (the needle entry site). Additional adjacent serial coronal sections taken through the center of the hemorrhagic lesion were processed for the counting of marker-specific cells (Jung et al., 2004). Antibodies of OX-42 (1:100; BD, USA), ED-1 (1:100; BD, USA) were used as microglial markers, and NeuN (1:200, Chemicon, USA) was used as neuron marker. Tissues sections were incubated with the primary antibodies overnight at 4° C. […] The numbers of positive cells in the same focal plane were counted in 6 regions of interest around the ipsilateral striatum (perihematomal region, 1 mm^2) All cell counting was done by an independent investigator counted the positive cells.

[5] = Evaluation of physiological parameters (MABP, heart rate, rectal temperature, blood gases); format: in vivo, rats; conditions: for RT (rectal temperature) / pCO2 / pO2 / pH: ICH + L-UCN 2.5 μg/kg i.p.; for decrease in MABP / increase in HR: 1.0 to 3.0 h post-treatment; for pH: arterial blood
Procedure: Rats were randomly assigned for evaluation of physiological parameters including mean arterial blood pressure, blood gases, body weight changes and body temperature. Under urethane (urethane (1.0 g/kg bodyweight, intraperitoneally, Sigma-Aldrich) anesthesia, a femoral artery was cannulated with a PE-50 polyethylene tube for fluid supplementation and monitoring of arterial blood pressure and blood gas. Arterial blood pressure was recorded through an amplifier (MP35, BIOPAC system, Inc.) and stored in a PC computer. Body temperature (rectal temperature) was automatically maintained at 37.5±0.5° C. by a rectal temperature sensor and a heating pad (CMA-150, Sweden). The physiological parameters were measured before (baseline) and after treatment (UCN or Saline) 0.5, 1 and 3 hours.

[6] = UCN 2.5 μg/kg i.p. 1 h after ICH

urocortin (DNPSLSIDLTFHLLRTLLELARTQSQRERAEQNRIIFDSV; ends and bridges not checked; UniProt P55089 83-122, looked up) [UCN, a 40-amino-acid endogenous neuropeptide, belongs to the corticotrophin releasing hormone (CRH) family]
mNSS ([1]; H-UCN 25 μg/kg i.p. 60 min post-ICH, day 1, scale 0-18): 6.55±0.26 | mNSS ([1]; H-UCN 25 μg/kg i.p. 60 min post-ICH, day 3, scale 0-18): 4.68±0.29 | mNSS ([1]; H-UCN 25 μg/kg i.p. 60 min post-ICH, day 7, scale 0-18): 2.00±0.26 | mNSS ([1]; L-UCN 2.5 μg/kg i.p. 60 min post-ICH, day 1, scale 0-18): 3.86±0.70 | mNSS ([1]; L-UCN 2.5 μg/kg i.p. 60 min post-ICH, day 3, scale 0-18): 1.71±0.55 | mNSS ([1]; L-UCN 2.5 μg/kg i.p. 60 min post-ICH, day 7, scale 0-18): 1.63±0.46 | mNSS ([1]; UCN 0.05, 0.5 and 5 μg i.c.v. 1 h after collagenase ICH, over 7 days, most effective at 5 μg, vs ICH+Saline): dose-dependent reduction in the mNSS | lesion volume ([2]; L-UCN 2.5 μg/kg i.p., day 3 post-ICH): 23.73±1.79 mm^3 | injured area ([2]; day 3 after ICH): 16.14±1.22 mm^2 | injured area ([2]; day 7 after ICH): 5.62±1.04 mm^2 | Evans blue dye concentration ([3]; cerebellum, contralateral cerebral cortex and striatum, L-UCN 2.5 μg/kg i.p., day 3): not changed | Evans blue dye concentration ([3]; contralateral striatum, contralateral and ipsilateral cortices, cerebellum, UCN 5 μg i.c.v., day 3, vs ICH+Saline): not different | Evans blue dye concentration ([3]; ipsilateral cortex, L-UCN 2.5 μg/kg i.p., day 3 post-ICH): 0.38 ± 0.05 µg/g | Evans blue dye concentration ([3]; ipsilateral striatum, L-UCN 2.5 μg/kg i.p., day 3 post-ICH): 1.73 ± 0.36 µg/g | Evans blue concentration ([3]; ipsilateral striatum, UCN 5 μg i.c.v., day 3 after ICH): 1.24 ± 0.31 µg/g | number of ED-1+ cells [4]: 28.50±2.65 cells/6 mm^2 | number of OX-42+ microglial cells [4]: 82.00±22.86 cells/6 mm^2 | RT (rectal temperature) ([5]; 0.5 h post-treatment): 36.95 ± 0.03 °C | pCO2 ([5]; 0.5 h post-treatment): 45.07 ± 1.05 mmHg | pO2 ([5]; 0.5 h post-treatment): 105.24 ± 6.00 mmHg | RT (rectal temperature) ([5]; 1.0 h post-treatment): 37.00 ± 0.05 °C | pCO2 ([5]; 1.0 h post-treatment): 42.60 ± 2.44 mmHg | pO2 ([5]; 1.0 h post-treatment): 107.28 ± 5.35 mmHg | RT (rectal temperature) ([5]; 3.0 h post-treatment): 36.97 ± 0.02 °C | pCO2 ([5]; 3.0 h post-treatment): 43.25 ± 1.59 mmHg | pO2 ([5]; 3.0 h post-treatment): 107.90 ± 5.59 mmHg | RT (rectal temperature) ([5]; baseline): 36.92 ± 0.05 °C | pCO2 ([5]; baseline): 46.73 ± 1.80 mmHg | pO2 ([5]; baseline): 100.00 ± 4.40 mmHg | decrease in MABP [5, 6]: ≤ 25 mm Hg | increase in HR [5, 6]: ≤ 35 beats/min | mean arterial blood pressure ([5]; UCN 5 μg i.c.v., over 3 hours): no significant difference | fall in mean arterial blood pressure (MABP) ([5]; UCN 25 μg/kg body weight, bolus intraperitoneal injection): 40-50 mmHg | fall of MABP ([5]; UCN 25 μg/kg body weight, bolus intravenous injection, vs intraperitoneal): much more abrupt fall of MABP | decrease in MABP ([5]; UCN 25 μg/kg i.p.): ≤ 40 mm Hg | increase in HR ([5]; UCN 25 μg/kg i.p.): ≤ 45 beats/min | pH ([5]; 0.5 h post-treatment): 7.39 ± 0.01 | pH ([5]; 1.0 h post-treatment): 7.42 ± 0.01 | pH ([5]; 3.0 h post-treatment): 7.42 ± 0.01 | pH ([5]; baseline): 7.37 ± 0.02
